Measured values as given in patent US20250263459A1, “STABILIZED PACAP PEPTIDE” (SENJU PHARMACEUTICAL CO., LTD., priority 2019, published 2025).
Non-standard residues stand in square brackets, D forms with d. Residues, ends and D or L forms follow the SMILES beside them. No end group written: not given here. Ala(1H-tetrazol-5-yl) = N[C@@H](Cc1nnn[nH]1)C(=O)O; Tz = tetrazole-substituted aspartic acid; Aib = CC(C)(N)C(=O)O

Assays:
[1] = Stability test 1, sample preparation 5: survival rate of peptide in Tris buffer (pH 7.0) after storage, HPLC; format: physicochemical; details: 100 μM peptide
Procedure: The peak area value for the peptide in the chromatogram was calculated, and the survival rate (survival rate before correction for water) was calculated using formula (2). The survival rate after correction for water was also calculated from the survival rate before correction for water using formula (3) to take into account the permeability of the container.
The prepared peptide solutions were incubated for 4 weeks or 8 weeks in a 40° C. thermostatic bath, and for one week or 2 weeks in a thermostatic bath at 60° C., to obtain stored samples.
The following gradient time was used only for peptide 30.

PAC1 receptor = target: T1, PAC1 receptor (UniProt P41586 21-468, limits assumed); test: cell-based or functional assay
T1 sequence (looked up): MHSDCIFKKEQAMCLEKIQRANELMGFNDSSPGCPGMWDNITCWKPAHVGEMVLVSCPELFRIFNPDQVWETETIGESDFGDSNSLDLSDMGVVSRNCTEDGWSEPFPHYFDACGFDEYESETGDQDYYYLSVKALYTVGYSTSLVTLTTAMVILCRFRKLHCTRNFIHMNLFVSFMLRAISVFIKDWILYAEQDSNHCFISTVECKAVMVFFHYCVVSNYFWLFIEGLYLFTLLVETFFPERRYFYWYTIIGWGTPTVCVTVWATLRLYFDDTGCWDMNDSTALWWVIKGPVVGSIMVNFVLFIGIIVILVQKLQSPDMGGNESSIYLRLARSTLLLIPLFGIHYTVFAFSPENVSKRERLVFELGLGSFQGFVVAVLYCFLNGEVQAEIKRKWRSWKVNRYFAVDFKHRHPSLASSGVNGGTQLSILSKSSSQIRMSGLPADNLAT

VPAC1 receptor = target: T2, VPAC1 receptor (UniProt P32241 31-457, limits assumed); test: cell-based or functional assay
T2 sequence (looked up): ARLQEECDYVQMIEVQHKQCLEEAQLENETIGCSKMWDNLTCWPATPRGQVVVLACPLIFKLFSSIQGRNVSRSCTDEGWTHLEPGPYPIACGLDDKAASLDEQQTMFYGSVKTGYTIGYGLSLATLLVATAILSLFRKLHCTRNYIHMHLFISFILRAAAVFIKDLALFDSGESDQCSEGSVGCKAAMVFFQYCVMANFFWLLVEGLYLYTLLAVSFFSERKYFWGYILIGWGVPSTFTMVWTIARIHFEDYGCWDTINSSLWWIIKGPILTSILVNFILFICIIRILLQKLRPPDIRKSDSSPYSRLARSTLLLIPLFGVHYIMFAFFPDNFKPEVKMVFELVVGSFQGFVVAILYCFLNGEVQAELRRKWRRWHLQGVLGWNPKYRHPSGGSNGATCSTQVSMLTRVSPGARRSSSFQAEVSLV

For `CC[C@H](C)[C@H](NC(=O)CNC(=O)[C@H](Cc1nnn[nH]1)NC(=O)[C@H](C)NC(=O)[C@H](Cc1c[nH]cn1)NC(C)=O)C(=O)N[C@@H](Cc1ccccc1)C(=O)N[C@@H](C)C(=O)N[C@@H](Cc1nnn[nH]1)C(=O)N[C@@H](C)C(=O)N[C@@H](Cc1ccc(O)cc1)C(=O)N[C@@H](CO)C(=O)N[C@@H](CCCNC(=N)N)C(=O)N[C@@H](Cc1ccc(O)cc1)C(=O)N[C@@H](CCCNC(=N)N)C(=O)N[C@@H](CCCCN)C(=O)N[C@@H](C)C(=O)N[C@@H](C)C(=O)N[C@@H](C)C(=O)N[C@H](C(=O)N[C@@H](CCCCN)C(=O)N[C@@H](CCCCN)C(=O)N[C@@H](Cc1ccc(O)cc1)C(=O)N[C@@H](CC(C)C)C(=O)N[C@@H](C)C(=O)N[C@@H](C)C(=O)N[C@H](C(=O)N[C@@H](CC(C)C)C(N)=O)C(C)C)C(C)C` [Peptide 30, HATzGI FATzAY SRYRK AAAVK KYLAA VL] (Ac-HA[Ala(1H-tetrazol-5-yl)]GIFA[Ala(1H-tetrazol-5-yl)]AYSRYRKAAAVKKYLAAVL-NH2), the “survival rate after correction for water, 40° C. 4 week” value ([1]; Tris buffer pH 7.0, 40° C., 4 weeks (Table 13)) was 91.5%, the “survival rate after correction for water, 40° C. 8 week” value ([1]; Tris buffer pH 7.0, 40° C., 8 weeks (Table 13)) was 83.4% and the “survival rate after correction for water, 60° C. 1 week” value ([1]; Tris buffer pH 7.0, 60° C., 1 week (Table 13)) was 96.7%. The “survival rate after correction for water, 60° C. 2 week” value ([1]; Tris buffer pH 7.0, 60° C., 2 weeks (Table 13)) was 93.7%.

B1: Peptide 24 (peptide)
peptide: HSXGIFAXSYSRYRKQLAVKKYLAAVL
modifications: N-terminal Ac; tetrazole-substituted aspartic acid (Tz) at positions 3 and 8; C-terminal amide (NH2)
For B1, the “EC50, cAMP assay (Hit Hunter cAMP, chemiluminescence RLU)” value (shortened to “EC50, cAMP assay”) (PAC1 receptor) was 1.26 nM and the “EC50, cAMP assay” value (VPAC1 receptor) was 0.042 nM.

B2: Peptide 25 (peptide)
peptide: HAXGIFAXSYSRYRKQLAVKKYLAAVL
modifications: N-terminal Ac; tetrazole-substituted aspartic acid (Tz) at positions 3 and 8; C-terminal amide (NH2)
For B2, the “EC50, cAMP assay” value (PAC1 receptor) was 0.693 nM and the “EC50, cAMP assay” value (VPAC1 receptor) was 0.041 nM.

B3: Peptide 20 (peptide)
peptide: HSXGIFTXSYSRYRKQXAVKKYLAAVL
modifications: not fully specified; N-terminal CH3CH2CH2CH2CO; tetrazole-substituted aspartic acid (Tz) at positions 3 and 8; norleucine (Nl) at position 17; C-terminal amide (NH2)
For B3, the “EC50, cAMP assay” value (PAC1 receptor) was 0.574 nM and the “EC50, cAMP assay” value (VPAC1 receptor) was 0.131 nM.

B4: Peptide 21 (peptide)
peptide: HSXGIFTXSYSRYRKQXAVKKYLAAVL
modifications: N-terminal (CH3)2CHCH2CO; tetrazole-substituted aspartic acid (Tz) at positions 3 and 8; norleucine (Nl) at position 17; C-terminal amide (NH2)
In the case of B4, the “EC50, cAMP assay” value (PAC1 receptor) is reported as 1.13 nM and the “EC50, cAMP assay” value (VPAC1 receptor) is reported as 0.141 nM.

B5: Peptide 11 (peptide)
peptide: HSXGIFTXSYSRYRKQXAVKKYLAAVL
modifications: sulfoxy-substituted aspartic acid (cya) at positions 3 and 8; norleucine (Nl) at position 17; C-terminal amide (NH2)
In the case of B5, the “EC50, cAMP assay” value (PAC1 receptor) is reported as 0.911 nM and the “EC50, cAMP assay” value (VPAC1 receptor) is reported as 0.08 nM.

B6: Peptide 27 (peptide)
peptide: HSXGIFAXAYSRYRKQLAVKKYLAAVL
modifications: N-terminal Ac; tetrazole-substituted aspartic acid (Tz) at positions 3 and 8; C-terminal amide (NH2)
For B6, the “EC50, cAMP assay” value (PAC1 receptor) was 2.53 nM and the “EC50, cAMP assay” value (VPAC1 receptor) was 0.111 nM.

With HS[Tz]GIFA[Tz][Aib]Y[Aib]RYRKQMAVKKYLAAVL-NH2 (also: Tz racemic) [Peptide 6] the “EC50, cAMP assay” value (PAC1 receptor) was 1.17 nM and the “EC50, cAMP assay” value (VPAC1 receptor) was 0.11 nM.

For HS[Tz]GIFA[Tz]SYARYRKQMAVKKYLAAVL-NH2 (also: Tz racemic) [Peptide 2], the “EC50, cAMP assay” value (PAC1 receptor) was 0.61 nM and the “EC50, cAMP assay” value (VPAC1 receptor) was 0.085 nM.

For HS[Tz]GIFA[Tz]SY[Aib]RYRKQMAVKKYLAAVL-NH2 (also: Tz racemic) [Peptide 5], the “EC50, cAMP assay” value (PAC1 receptor) was 0.695 nM and the “EC50, cAMP assay” value (VPAC1 receptor) was 0.078 nM.

B7: Peptide 23 (peptide)
peptide: HSXGAFTXSYSRYRKQLAVKKYLAAVL
modifications: N-terminal Ac; tetrazole-substituted aspartic acid (Tz) at positions 3 and 8; C-terminal amide (NH2)
In the case of B7, the “EC50, cAMP assay” value (PAC1 receptor) is reported as 1.15 nM and the “EC50, cAMP assay” value (VPAC1 receptor) is reported as 0.047 nM.

B8: Peptide 18 (peptide)
peptide: HSXGIFTXSYSRYRKQXAVKKYLAAVL
modifications: N-terminal CH3CH2CH2CO; tetrazole-substituted aspartic acid (Tz) at positions 3 and 8; norleucine (Nl) at position 17; C-terminal amide (NH2)
With B8 the “EC50, cAMP assay” value (PAC1 receptor) was 0.189 nM and the “EC50, cAMP assay” value (VPAC1 receptor) was 0.069 nM.

B9: Peptide 9 (peptide)
peptide: HSXGIFTXSYSRYRKQMAVKKYLAAV
modifications: tetrazole-substituted aspartic acid (Tz, racemic) at positions 3 and 8; C-terminal amide (NH2)
With B9 the “EC50, cAMP assay” value (PAC1 receptor) was 0.287 nM and the “EC50, cAMP assay” value (VPAC1 receptor) was 0.079 nM.

B10: Peptide 17 (peptide)
peptide: HSXGIFTXSYSRYRKQXAVKKYLAAVL
modifications: N-terminal CH3CH2CO; tetrazole-substituted aspartic acid (Tz) at positions 3 and 8; norleucine (Nl) at position 17; C-terminal amide (NH2)
With B10 the “EC50, cAMP assay” value (PAC1 receptor) was 0.398 nM and the “EC50, cAMP assay” value (VPAC1 receptor) was 0.071 nM.

B11: Peptide 12 (peptide)
peptide: MHSXGIFTXSYSRYRKQLAVKKYLAAVL
modifications: tetrazole-substituted aspartic acid (Tz) at positions 4 and 9 of this 28-residue peptide (positions 3 and 8 of PACAP27); C-terminal amide (NH2)
For B11, the “EC50, cAMP assay” value (PAC1 receptor) was 4.28 nM and the “EC50, cAMP assay” value (VPAC1 receptor) was 0.651 nM.

For HS[Tz]GIFT[Tz]SYSRYRKQMAVKKYLA-NH2 (also: Tz racemic) [Peptide 8], the “EC50, cAMP assay” value (PAC1 receptor) was 0.679 nM and the “EC50, cAMP assay” value (VPAC1 receptor) was 0.045 nM.

B12: Peptide 14 (peptide)
peptide: HSXGIFTXSYSRYRKQXAVKKYLAAVL
modifications: tetrazole-substituted aspartic acid (Tz) at position 3; D-form tetrazole-substituted aspartic acid (Tz(D)) at position 8; norleucine (Nl) at position 17; C-terminal amide (NH2)
For B12, the “EC50, cAMP assay” value (PAC1 receptor) was 0.857 nM and the “EC50, cAMP assay” value (VPAC1 receptor) was 0.107 nM.

For Ac-HA[Tz]GIFT[Tz]SYSRYRKALAVKKYLAAVL-NH2 [Peptide 26], the “EC50, cAMP assay” value (PAC1 receptor) was 0.209 nM and the “EC50, cAMP assay” value (VPAC1 receptor) was 0.068 nM.

B13: Peptide 15 (peptide)
peptide: HSXGIFTXSYSRYRKQXAVKKYLAAVL
modifications: D-form tetrazole-substituted aspartic acid (Tz(D)) at position 3; tetrazole-substituted aspartic acid (Tz) at position 8; norleucine (Nl) at position 17; C-terminal amide (NH2)
With B13 the “EC50, cAMP assay” value (PAC1 receptor) was 0.079 nM and the “EC50, cAMP assay” value (VPAC1 receptor) was 0.243 nM.

For HS[Tz]GIFA[Tz][Aib]YSRYRKQMAVKKYLAAVL-NH2 (also: Tz racemic) [Peptide 4], the “EC50, cAMP assay” value (PAC1 receptor) was 2.36 nM and the “EC50, cAMP assay” value (VPAC1 receptor) was 0.121 nM.

B14: Peptide 16 (peptide)
peptide: HSXGIFTXSYSRYRKQXAVKKYLAAVL
modifications: tetrazole-substituted aspartic acid (Tz) at position 3; tetrazole-substituted glutamic acid (egTz) at position 8; norleucine (Nl) at position 17; C-terminal amide (NH2)
In the case of B14, the “EC50, cAMP assay” value (PAC1 receptor) is reported as 1.62 nM and the “EC50, cAMP assay” value (VPAC1 receptor) is reported as 0.142 nM.

B15: Peptide 19 (peptide)
peptide: HSXGIFTXSYSRYRKQXAVKKYLAAVL
modifications: N-terminal (CH3)2CHCO; tetrazole-substituted aspartic acid (Tz) at positions 3 and 8; norleucine (Nl) at position 17; C-terminal amide (NH2)
With B15 the “EC50, cAMP assay” value (PAC1 receptor) was 0.256 nM and the “EC50, cAMP assay” value (VPAC1 receptor) was 0.069 nM.

For HS[Tz]GIFT[Tz][Aib]Y[Aib]RYRKQMAVKKYLAAVL-NH2 (also: Tz racemic) [Peptide 7], the “EC50, cAMP assay” value (PAC1 receptor) was 0.319 nM and the “EC50, cAMP assay” value (VPAC1 receptor) was 0.096 nM.

B16: Peptide 13 (peptide)
peptide: HSXGIFTXSYSRYRKQXAVKKYLAAVL
modifications: D-form tetrazole-substituted aspartic acid (Tz(D)) at positions 3 and 8; norleucine (Nl) at position 17; C-terminal amide (NH2)
For B16, the “EC50, cAMP assay” value (PAC1 receptor) was 0.738 nM and the “EC50, cAMP assay” value (VPAC1 receptor) was 0.082 nM.

B17: Peptide 22 (peptide)
peptide: HSXGIFTXSYSRYRKQXAVKKYLAAVL
modifications: N-terminal Ac (CH3CO); oxadiazolone-substituted aspartic acid (5Oxa) at positions 3 and 8; norleucine (Nl) at position 17; C-terminal amide (NH2)
In the case of B17, the “EC50, cAMP assay” value (PAC1 receptor) is reported as 0.376 nM and the “EC50, cAMP assay” value (VPAC1 receptor) is reported as 0.077 nM.

In the case of HS[Ala(1H-tetrazol-5-yl)]GIFA[Ala(1H-tetrazol-5-yl)]AYSRYRKQMAVKKYLAAVL-NH2 (also: Tz racemic at 3 and 8) [Peptide 1], the “EC50, cAMP assay” value (PAC1 receptor) is reported as 1.22 nM and the “EC50, cAMP assay” value (VPAC1 receptor) is reported as 0.097 nM.

B18: Peptide 10 (peptide)
peptide: HSXGIFTXSYSRYRKQLAVKKYLAAVL
modifications: sulfoxy-substituted aspartic acid (cya) at positions 3 and 8; C-terminal amide (NH2)
With B18 the “EC50, cAMP assay” value (PAC1 receptor) was 0.447 nM and the “EC50, cAMP assay” value (VPAC1 receptor) was 0.057 nM.
